{"source": "the supplement of paper PMC7125110", "parents": {"B1": {"name": "glmS ribozyme (parent)", "chain": "AUAAAAGCGCCAGAACUACAGAAAUGUAGUUGACGAGGAGGAGGUUUAUCGAAUUUUCGGCGGAUGCCUCCAAA"}}, "note": "± gives the standard error. Fewer inactive variants are shown than the library holds."}
{"variants_of": "B1", "test": "self-cleavage kobs at 10000 uM GlcN6P; higher = faster cleavage; RNA array", "settings": "with glucosamine-6-phosphate", "summary_of_the_method": "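Tiles bearing barcoded ribozyme variants, transcribed in situ by E. coli RNA polymerase on sequenced MiSeq chips, were imaged over ~14 h at 37 °C using a hybridised Cy3 probe. Glucosamine-6-phosphate was supplied at 40 μM to 10 mM in HEPES/KCl/Mg(OAc)2 buffer. kobs came from one- or two-exponential decay fits to normalised per-tile medians, and weighted Michaelis–Menten fits then provided kcat and KM.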", "units": {"self-cleavage kobs at 10000 uM GlcN6P": "s⁻¹"}}
{"variant": "A15C A64G C67G C68U", "self-cleavage kobs at 10000 uM GlcN6P": "< 1e-05"}
{"variant": "A14C G35C G38U C61U G63U U65A C71G", "self-cleavage kobs at 10000 uM GlcN6P": "< 1e-05"}
{"variant": "A33U G41C A52U A53C", "self-cleavage kobs at 10000 uM GlcN6P": "< 1e-05"}
{"variant": "A36U A39C U65C", "self-cleavage kobs at 10000 uM GlcN6P": "< 1e-05"}
{"variant": "A14C A36G G51U", "self-cleavage kobs at 10000 uM GlcN6P": "< 1e-05"}
{"variant": "U30C U31G A33G U69G", "self-cleavage kobs at 10000 uM GlcN6P": "< 1e-05"}
{"variant": "A15G G32U G43U C61G G63U A64G G66A", "self-cleavage kobs at 10000 uM GlcN6P": "< 1e-05"}
{"variant": "G13U C16U U31A A33U G35C", "self-cleavage kobs at 10000 uM GlcN6P": "< 1e-05"}
{"variant": "C11U C34A G43C", "self-cleavage kobs at 10000 uM GlcN6P": "< 1e-05"}
{"variant": "G38A U49A G66U", "self-cleavage kobs at 10000 uM GlcN6P": "< 1e-05"}
{"variant": "G13U U31G A64G", "self-cleavage kobs at 10000 uM GlcN6P": "0.00021 ± 5.2e-05"}
{"variant": "U31A G43C C68U", "self-cleavage kobs at 10000 uM GlcN6P": "0.000192 ± 5.2e-05"}
{"variant": "U30C G44U C58G", "self-cleavage kobs at 10000 uM GlcN6P": "< 1e-05"}
{"variant": "A15C G44A A53G", "self-cleavage kobs at 10000 uM GlcN6P": "5.76e-05 ± 1.5e-05"}
{"variant": "U31A A39G U55C", "self-cleavage kobs at 10000 uM GlcN6P": "0.0297 ± 0.011"}
{"variant": "G32C A36C G51C", "self-cleavage kobs at 10000 uM GlcN6P": "< 1e-05"}
{"variant": "C16U G62C", "self-cleavage kobs at 10000 uM GlcN6P": "< 1e-05"}
{"variant": "A12G A14U C58A", "self-cleavage kobs at 10000 uM GlcN6P": "0.000276 ± 5.2e-05"}
{"variant": "A12G A14C C67U", "self-cleavage kobs at 10000 uM GlcN6P": "7.11e-05 ± 1.5e-05"}
{"variant": "A14U G40A U54A", "self-cleavage kobs at 10000 uM GlcN6P": "0.000245 ± 8.4e-05"}
{"variant": "G29U U46G C68U", "self-cleavage kobs at 10000 uM GlcN6P": "0.000229 ± 4.1e-05"}
{"variant": "U30G U47C U54C C67U", "self-cleavage kobs at 10000 uM GlcN6P": "5.7e-05 ± 2.2e-05"}
{"variant": "G32C U56A C71A", "self-cleavage kobs at 10000 uM GlcN6P": "3.09e-05 ± 1.5e-05"}
{"variant": "U30C U54G C67G", "self-cleavage kobs at 10000 uM GlcN6P": "2.88e-05 ± 1.3e-05"}
{"variant": "U30C A36C U49A", "self-cleavage kobs at 10000 uM GlcN6P": "< 1e-05"}
{"variant": "U30C G32C G40A", "self-cleavage kobs at 10000 uM GlcN6P": "6.96e-05 ± 1.4e-05"}
{"variant": "A14C U31C G41A", "self-cleavage kobs at 10000 uM GlcN6P": "7.28e-05 ± 1.8e-05"}
{"variant": "A12G A36C C67G", "self-cleavage kobs at 10000 uM GlcN6P": "< 1e-05"}
{"variant": "A12U G44U A52G", "self-cleavage kobs at 10000 uM GlcN6P": "4.49e-05 ± 1.9e-05"}
{"variant": "A15C U31A G38C G41C", "self-cleavage kobs at 10000 uM GlcN6P": "< 1e-05"}
{"variant": "U30A A42G U46A", "self-cleavage kobs at 10000 uM GlcN6P": "0.000409 ± 9.1e-05"}
{"variant": "C11G G13U G37C", "self-cleavage kobs at 10000 uM GlcN6P": "< 1e-05"}
{"variant": "A14U U45G C61U", "self-cleavage kobs at 10000 uM GlcN6P": "< 1e-05"}
{"variant": "A39C G44C C50G U55G C67U", "self-cleavage kobs at 10000 uM GlcN6P": "< 1e-05"}
{"variant": "A39C U49A C61U C70G", "self-cleavage kobs at 10000 uM GlcN6P": "< 1e-05"}
{"variant": "U31A G32A A42G", "self-cleavage kobs at 10000 uM GlcN6P": "0.000766 ± 0.00025"}
{"variant": "G35C G44A U46G", "self-cleavage kobs at 10000 uM GlcN6P": "< 1e-05"}
{"variant": "G32U A52G C70A", "self-cleavage kobs at 10000 uM GlcN6P": "8.27e-05 ± 2.1e-05"}
{"variant": "A14U G32U U46C", "self-cleavage kobs at 10000 uM GlcN6P": "4.16e-05 ± 1.4e-05"}
{"variant": "G13A A39G C67U", "self-cleavage kobs at 10000 uM GlcN6P": "0.000112 ± 2.2e-05"}
{"variant": "G37A G44A", "self-cleavage kobs at 10000 uM GlcN6P": "2.6e-05 ± 1.2e-05"}
{"variant": "A14G U47C U56G", "self-cleavage kobs at 10000 uM GlcN6P": "0.0112 ± 0.0019"}
{"variant": "G35C C50A G51A", "self-cleavage kobs at 10000 uM GlcN6P": "< 1e-05"}
{"variant": "C16U G37A U65G", "self-cleavage kobs at 10000 uM GlcN6P": "0.000183 ± 3.8e-05"}
{"variant": "U31C U57C", "self-cleavage kobs at 10000 uM GlcN6P": "5.52e-05 ± 1.3e-05"}
{"variant": "A14G A39G G44C C68U", "self-cleavage kobs at 10000 uM GlcN6P": "3.6e-05 ± 1.5e-05"}
{"variant": "G38U C50G C67A C71G", "self-cleavage kobs at 10000 uM GlcN6P": "0.000322 ± 6.1e-05"}
{"variant": "A33G A36G A39U A53G", "self-cleavage kobs at 10000 uM GlcN6P": "< 1e-05"}
{"variant": "C16G C50A U56C U69G", "self-cleavage kobs at 10000 uM GlcN6P": "< 1e-05"}
{"variant": "A15G A52G C71U", "self-cleavage kobs at 10000 uM GlcN6P": "0.00137 ± 0.00021"}
{"variant": "U30C G40A U56A G62C", "self-cleavage kobs at 10000 uM GlcN6P": "< 1e-05"}
{"variant": "G13U U30A C58U G59U", "self-cleavage kobs at 10000 uM GlcN6P": "< 1e-05"}
{"variant": "G29C G44A C58G", "self-cleavage kobs at 10000 uM GlcN6P": "< 1e-05"}
{"variant": "G37A A39G U54G U55A", "self-cleavage kobs at 10000 uM GlcN6P": "0.00276 ± 0.00061"}
{"variant": "U31G A36U C67A C68G", "self-cleavage kobs at 10000 uM GlcN6P": "6.42e-05 ± 1.5e-05"}
{"variant": "A15G U46G C67G", "self-cleavage kobs at 10000 uM GlcN6P": "0.000339 ± 6e-05"}
{"variant": "A15G C16U U47C U65A U69C", "self-cleavage kobs at 10000 uM GlcN6P": "6.04e-05 ± 2.9e-05"}
{"variant": "A12C G62U C71U", "self-cleavage kobs at 10000 uM GlcN6P": "< 1e-05"}
{"variant": "A14G C34A G38A C67A", "self-cleavage kobs at 10000 uM GlcN6P": "< 1e-05"}
{"variant": "A15C C16G G37C C58A G63C", "self-cleavage kobs at 10000 uM GlcN6P": "< 1e-05"}
{"variant": "A14G A15G U47C U55A C70G", "self-cleavage kobs at 10000 uM GlcN6P": "0.000483 ± 0.00014"}
{"variant": "A12U C16A G35A A42C G59U C71U", "self-cleavage kobs at 10000 uM GlcN6P": "< 1e-05"}
{"variant": "A15G A33G G59U", "self-cleavage kobs at 10000 uM GlcN6P": "< 1e-05"}
{"variant": "G38U C50G C71A", "self-cleavage kobs at 10000 uM GlcN6P": "9.8e-05 ± 1.9e-05"}
{"variant": "A39C G44C C68A", "self-cleavage kobs at 10000 uM GlcN6P": "< 1e-05"}
{"variant": "A14U G44U U45G U46G", "self-cleavage kobs at 10000 uM GlcN6P": "4.76e-05 ± 1.9e-05"}
{"variant": "C11G A36C G37C U46G G60A", "self-cleavage kobs at 10000 uM GlcN6P": "< 1e-05"}
{"variant": "C16G A36C C58U C70G", "self-cleavage kobs at 10000 uM GlcN6P": "4.92e-05 ± 2.2e-05"}
{"variant": "A15U C16A A39U", "self-cleavage kobs at 10000 uM GlcN6P": "0.000273 ± 6.1e-05"}
{"variant": "A33C G38A C58A", "self-cleavage kobs at 10000 uM GlcN6P": "< 1e-05"}
{"variant": "C16G C50G A52C U55A C70U", "self-cleavage kobs at 10000 uM GlcN6P": "4.88e-05 ± 1.9e-05"}
{"variant": "G32C G35C U49C C68A", "self-cleavage kobs at 10000 uM GlcN6P": "< 1e-05"}
{"variant": "A12U G41A U54C", "self-cleavage kobs at 10000 uM GlcN6P": "0.000963 ± 0.00021"}
{"variant": "A33U G35C C71G", "self-cleavage kobs at 10000 uM GlcN6P": "< 1e-05"}
{"variant": "C34A G43A U49G C70G", "self-cleavage kobs at 10000 uM GlcN6P": "< 1e-05"}
{"variant": "A33C A36G U47G G51A", "self-cleavage kobs at 10000 uM GlcN6P": "< 1e-05"}
{"variant": "A12G A42G A52G", "self-cleavage kobs at 10000 uM GlcN6P": "2.4e-05 ± 1.2e-05"}
{"variant": "A36G A53C C67A", "self-cleavage kobs at 10000 uM GlcN6P": "< 1e-05"}
{"variant": "G32A A52G C70U", "self-cleavage kobs at 10000 uM GlcN6P": "0.000145 ± 1.9e-05"}
{"variant": "G29U U56C", "self-cleavage kobs at 10000 uM GlcN6P": "0.000483 ± 0.00016"}
{"variant": "G32A G40A C68G", "self-cleavage kobs at 10000 uM GlcN6P": "< 1e-05"}
{"variant": "C11U A15G U31C C67G", "self-cleavage kobs at 10000 uM GlcN6P": "6.25e-05 ± 1.8e-05"}
{"variant": "G13U C34U G63U", "self-cleavage kobs at 10000 uM GlcN6P": "< 1e-05"}
{"variant": "C11G C61G", "self-cleavage kobs at 10000 uM GlcN6P": "< 1e-05"}
